Test results published in PMC11984393.

Target: CD8 (T-cell surface marker) (Mus musculus) (UniProt P01731)
Test: flow cytometry
Conditions: 30 min, live-cell binding, 30 min incubation, buffer, salt, pH and temperature not given in the material

Chain of UniProt P01731 (P01731 whole entry): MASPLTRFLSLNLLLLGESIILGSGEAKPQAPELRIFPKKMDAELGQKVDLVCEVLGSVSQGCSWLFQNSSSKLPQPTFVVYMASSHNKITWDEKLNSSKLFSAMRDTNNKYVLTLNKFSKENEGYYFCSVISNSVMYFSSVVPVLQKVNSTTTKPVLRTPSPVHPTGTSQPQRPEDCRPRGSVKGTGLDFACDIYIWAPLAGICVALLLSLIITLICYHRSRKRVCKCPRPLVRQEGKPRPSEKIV

TTTTTAAGTAATGTATTTAAATTGCGAACTACTACTCTCTCTATATATTGCGAACTACTACTCTCTCTATATTAAAGGAAGGATCTCA [Apt-random-FAM]
binding signal (% positive cells) (negative control): 0.74

TTTTTTTTTTCCAGAGTGACGCAGCAACAGAGGTGTAGAAGTACACGTGAACAAGCTTGAAATTGTCTCCGACAGAGGTGGACACGGTGGCTTTTAGT [Apt-CD8-FAM]
binding signal (% positive cells): 44.4
